B1: HEIPQESL (peptide)
peptide: HEIPQESL
B2: KEVASNSEL (peptide)
peptide: KEVASNSEL
B3: TEHFLKKFF (peptide)
peptide: TEHFLKKFF
B4: DEYLIPQQGFF (peptide)
peptide: DEYLIPQQGFF
B5: RELIKAIGL (peptide)
peptide: RELIKAIGL
B6: VESSQAFTW (peptide)
peptide: VESSQAFTW
B7: EDLAVHLY (peptide)
peptide: EDLAVHLY
B8: KQWEYNEKLAF (peptide)
peptide: KQWEYNEKLAF
B9: SEYQDGKEF (peptide)
peptide: SEYQDGKEF
B10: AETIFIVRL (peptide)
peptide: AETIFIVRL
B11: QEFPAHSL (peptide)
peptide: QEFPAHSL
B12: MESAKETRY (peptide)
peptide: MESAKETRY
B13: YEMAIYKKY (peptide)
peptide: YEMAIYKKY
B14: QEILHGAVRF (peptide)
peptide: QEILHGAVRF
B15: HELALRQTV (peptide)
peptide: HELALRQTV
B16: SQYPHTHTF (peptide)
peptide: SQYPHTHTF
B17: KQTEATMTF (peptide)
peptide: KQTEATMTF
B18: REDLVGPEV (peptide)
peptide: REDLVGPEV
B19: GEQPPEGQW (peptide)
peptide: GEQPPEGQW
B20: DEDYTYLIL (peptide)
peptide: DEDYTYLIL
B21: AEHPDFSPCSF (peptide)
peptide: AEHPDFSPCSF
B22: DEQLLLRF (peptide)
peptide: DEQLLLRF
B23: EESSSPVDEY (peptide)
peptide: EESSSPVDEY
B24: CDAQIQYSY (peptide)
peptide: CDAQIQYSY
B25: EEFIGKIGI (peptide)
peptide: EEFIGKIGI
B26: EDNLIHKF (peptide)
peptide: EDNLIHKF
B27: QEVAGYVLI (peptide)
peptide: QEVAGYVLI
B28: AAEPLVGQRW (peptide)
peptide: AAEPLVGQRW
B29: VEEEISRHY (peptide)
peptide: VEEEISRHY
B30: TEFELLHQV (peptide)
peptide: TEFELLHQV
B31: VEFPATRSL (peptide)
peptide: VEFPATRSL
B32: EEEDRDGHTW (peptide)
peptide: EEEDRDGHTW
B33: QEWDPQKTEKY (peptide)
peptide: QEWDPQKTEKY
B34: YENILNAI (peptide)
peptide: YENILNAI
B35: REVSVVDIL (peptide)
peptide: REVSVVDIL
B36: MEFQGPMPAGM (peptide)
peptide: MEFQGPMPAGM
B37: DESADSEPHKY (peptide)
peptide: DESADSEPHKY
B38: VELMFPLLL (peptide)
peptide: VELMFPLLL
B39: EEFCFSVRF (peptide)
peptide: EEFCFSVRF
B40: KESQLPTVMDF (peptide)
peptide: KESQLPTVMDF
B41: SEDLAVHL (peptide)
peptide: SEDLAVHL
B42: QEDEQLLLRF (peptide)
peptide: QEDEQLLLRF
B43: QELLDIANYL (peptide)
peptide: QELLDIANYL
B44: AERIMFSDL (peptide)
peptide: AERIMFSDL
B45: AECILSKRL (peptide)
peptide: AECILSKRL
B46: GEDAHLTQY (peptide)
peptide: GEDAHLTQY
B47: DQVTVFLHF (peptide)
peptide: DQVTVFLHF
B48: DELSVGRY (peptide)
peptide: DELSVGRY
B49: QEIGQKTSV (peptide)
peptide: QEIGQKTSV
B50: IEVSSPITL (peptide)
peptide: IEVSSPITL
B51: VEQINISQDW (peptide)
peptide: VEQINISQDW
B52: KESMLKTTL (peptide)
peptide: KESMLKTTL
B53: RELGFTEATGW (peptide)
peptide: RELGFTEATGW
B54: AEQLRGFNA (peptide)
peptide: AEQLRGFNA
B55: AEVQIARKL (peptide)
peptide: AEVQIARKL
B56: MELQVSSGF (peptide)
peptide: MELQVSSGF
B57: AELDHLASL (peptide)
peptide: AELDHLASL
B58: EEWEWIQKL (peptide)
peptide: EEWEWIQKL
B59: SEQNIQRANLF (peptide)
peptide: SEQNIQRANLF
B60: VEDDNYKLSL (peptide)
peptide: VEDDNYKLSL
B61: TENPKKFKI (peptide)
peptide: TENPKKFKI
B62: QELEQEVISL (peptide)
peptide: QELEQEVISL
B63: RLLPGKVVW (peptide)
peptide: RLLPGKVVW
B64: EGEDAHLTQY (peptide)
peptide: EGEDAHLTQY
B65: DEIDKLTGY (peptide)
peptide: DEIDKLTGY
B66: GEPVTQPGSLL (peptide)
peptide: GEPVTQPGSLL
B67: VELEVPQL (peptide)
peptide: VELEVPQL
B68: HEHGLFNLY (peptide)
peptide: HEHGLFNLY
B69: KEFGIGDLVW (peptide)
peptide: KEFGIGDLVW
B70: GETCVRITY (peptide)
peptide: GETCVRITY
B71: IEVSSPITLQAL (peptide)
peptide: IEVSSPITLQAL

target: T1, HLA-B*44:05 (human); assay: UV peptide exchange, anti-b2m ELISA
T1 construct: also called peptide-receptive MHC class I molecule
Protocol: Only peptide candidates that can effectively bind and stabilize the peptide-receptive MHC molecules prevent dissociation of the MHC complexes. To determine the yield of the exchange reaction, an ELISA was performed based on the detection of the light chain (β2m) of stabilized MHC complexes. The assay was performed as generally described in Rodenko et al. (Rodenko et al., 2006)
96 well MAXISorp plates (NUNC) were coated over night with 2 ug/ml streptavidin in PBS at room temperature, washed 4× and blocked for 1 h at 37° C. in 2% BSA containing blocking buffer. […] Peptide-MHC monomers of the UV-exchange reaction were diluted 100-fold in blocking buffer. Samples were incubated for 1 h at 37° C., washed four times, incubated with 2 ug/ml HRP conjugated anti-β2m for 1 h at 37° C., washed again and detected with TMB solution that is stopped with […]. Absorption was measured at 450 nm.

peptide exchange yield [%]	Binder
10 to 20	B1
50 to 75	B2
50 to 75	B3
20 to 50	B4
50 to 75	B5
50 to 75	B6
10 to 20	B7
10 to 20	B8
20 to 50	B9
20 to 50	B10
50 to 75	B11
50 to 75	B12
> 75	B13
50 to 75	B14
> 75	B15
50 to 75	B16
20 to 50	B17
50 to 75	B18
50 to 75	B19
20 to 50	B20
50 to 75	B21
20 to 50	B22
20 to 50	B23
50 to 75	B24

peptide exchange yield [%]	Binder
20 to 50	B25
20 to 50	B26
50 to 75	B27
20 to 50	B28
20 to 50	B29
50 to 75	B30
50 to 75	B31
50 to 75	B32
50 to 75	B33
20 to 50	B34
> 75	B35
50 to 75	B36
10 to 20	B37
50 to 75	B38
50 to 75	B39
50 to 75	B40
> 75	B41
50 to 75	B42
> 75	B43
> 75	B44
50 to 75	B45
20 to 50	B46
10 to 20	B47
20 to 50	B48

peptide exchange yield [%]	Binder
50 to 75	B49
> 75	B50
> 75	B51
50 to 75	B52
> 75	B53
50 to 75	B54
50 to 75	B55
50 to 75	B56
50 to 75	B57
> 75	B58
50 to 75	B59
50 to 75	B60
50 to 75	B61
50 to 75	B62
20 to 50	B63
20 to 50	B64
20 to 50	B65
50 to 75	B66
20 to 50	B67
50 to 75	B68
> 75	B69
50 to 75	B70
20 to 50	B71

Source: patent US20200087363A1 (IMMATICS BIOTECHNOLOGIES, published 2020)
